Laboratory results: patent publication US5891663

Molecular target: precursor of the polypeptide that induces IFN-γ production in immunocompetent cells (human)

conversion of the precursor into the active polypeptide; IFN-γ content (IU/ml) induced in KG-1 cells by the reaction mixture, with Western blot time course: 4000 IU/ml
Substance: interleukin-1β converting enzyme (from UniProt P29466)
